# Biological target: RNA polymerase II;RECQL5 1-620 D157A (human;human, UniProt P24928;P30876;P19387;O15514;P19388;P61218;P62487;P52434;P36954;P62875;P52435;P53 …, |D157A)
# Assay: cryo-EM
# RNA polymerase II;RECQL5 1-620 D157A, sequence (O94762 1-620 D157A, one chain of several): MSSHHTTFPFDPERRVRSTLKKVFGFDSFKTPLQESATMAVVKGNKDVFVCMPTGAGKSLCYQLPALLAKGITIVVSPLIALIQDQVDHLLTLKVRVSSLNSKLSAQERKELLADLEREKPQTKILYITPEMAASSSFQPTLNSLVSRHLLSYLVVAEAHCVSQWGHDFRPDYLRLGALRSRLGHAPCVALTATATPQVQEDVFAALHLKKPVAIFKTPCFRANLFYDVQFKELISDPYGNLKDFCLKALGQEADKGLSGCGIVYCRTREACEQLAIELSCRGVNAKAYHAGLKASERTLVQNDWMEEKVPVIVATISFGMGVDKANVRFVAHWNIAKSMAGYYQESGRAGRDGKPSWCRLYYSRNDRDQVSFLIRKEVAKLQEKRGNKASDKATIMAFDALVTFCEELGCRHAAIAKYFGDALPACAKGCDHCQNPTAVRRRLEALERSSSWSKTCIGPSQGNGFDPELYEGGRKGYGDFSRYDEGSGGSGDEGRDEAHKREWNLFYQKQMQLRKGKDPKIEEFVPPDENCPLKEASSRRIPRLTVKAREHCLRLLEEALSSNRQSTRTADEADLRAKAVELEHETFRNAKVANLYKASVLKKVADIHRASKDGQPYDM
binder,measurement,value
"artificial transcription bubble (template DNA, nontemplate DNA, RNA) (mixed) DNA 1: CTCAAGTACTTACGCCTGGTCATTACTA DNA 2: TAGTAAACTAGTATTGAAAGTACTTGAGCTTAGACAGCATGTC RNA: UAUAUGCAUAAAGACCAGGC",binding result,binds
